One assay concerns UCP1 protein. Briefly: UCP1 protein in WT-1 cells (immunofluorescent staining, Western blot). The assay is classed as cell-based, murine. The note with it: for UCP1 protein, immunofluorescent staining: relative to control cells. On the procedure: Cells were harvested in lysis buffer (50 mM HEPES, 137 mM NaCl, 1 mM MgCl2, 1 mM CaCl2, 10 mM Na2P2O7, 10 mM NaF, 2 mM EDTA, 10% glycerol, 1% Igepal CA-630, 2 mM vanadate, 10 μg/ml of leupeptin, 10 μg/ml of aprotinin, 2 mM phenylmethylsulfonyl fluoride; pH 7.4). After lysis, lysates were clarified by centrifugation at 12,000×g for 20 min at 4° C., the amount of protein in the supernatants was determined by the Bradford Protein Assay (Bio-Rad Laboratories, Hercules, Calif.). Proteins were directly solubilized in Laemmli sample buffer. Equal amounts of lysates were separated by sodium dodecyl sulfate-polyacrylamide gel electrophoresis and transferred to Immobolin-P membranes. Membranes were blocked overnight at 4° C. and incubated with the indicated antibody for 2 hours at room temperature. Specifically bound primary antibodies were detected with peroxidase-coupled secondary antibody and enhanced chemiluminescence (ECL, Amersham Biosciences, Piscataway, N.J.).
(§1) The effect of FGF6 on differentiation of WT-1 murine brown preadipocytes was also examined. WT-1 cells can be induced to undergo brown adipocyte differentiation, characterized by lipid accumulation and expression of adipogenic and brown fat markers, as described above (Klein et al. (1999) J Biol Chem 274:34795; Tseng et al. (2005) Nat Cell Biol 7:601). WT-1 cells were treated with FGF6 in growth media (DMEM+10% FBS), a vehicle control (“control” or “C” referred to in FIGS. 3A-D), or induction media (“induction” or “I” referred to in FIGS. 3A-D) as described above for seven days. Following the treatment, cells were examined for the color of the culture media in combination with oil Red O staining, expression of adipogenic markers, expression of brown fat markers, immunofluorescent staining of cells with UCP1 and DPAI, and Western blot analysis to determine the presence of UCP1 and β-tubulin. The results are described in FIGS. 3A to 3D.
FGF2, FGF6 and FGF9 were used at a dosage of 200 ng/mL. Cells were stained using immunofluorescent stains for UCP1 and DAPI (which binds to DNA).
On the technique in general: Immunoblotting shows a protein as a band on a membrane.

In the next assay the test system is WT-1 brown preadipocytes. Briefly: Extracellular acidification rate (glycolysis) profile in FGF6 overexpressing WT-1 brown preadipocytes. The assay is classed as cell-based, murine. As to conditions: FGF6 overexpressing WT-1 vs control cells. On the procedure:
To determine whether nutrient supply could regulate mitochondrial activity in FGF6-treated cells, concentrations of glucose in the assay media of cells were manipulated and measured in the Seahorse Bioanalyzer. FGF6 was stably expressed in WT-1 brown preadipocytes and 3T3-F442A white preadipocytes. Stable cells were generated by viral infection followed by drug selection.
A profile of the extracellular acidification rate (ECAR) was developed as described in FIG. 20A. 10 mM glucose was added to the assay media, which was then taken up by the cells and catabolized through glycolysis, producing ATP and protons, and resulting in a rapid increase in ECAR. […] Lastly, the glycolysis inhibitor 2-DG was added to measure […].

Assay [1] deals with PPARγ, aP2, FAS, PRDM16, PGC1α, CIDEA. Briefly: Adipogenic and brown fat marker mRNA expression in WT-1 brown preadipocytes. The assay is classed as cell-based, murine. The protocol: Total RNA was isolated with QIAzol lysis reagent (Qiagen, Valencia, Calif.) and purified by RNeasy Mini columns (Qiagen) following the manufacture's instructions. cDNA was prepared from total RNA using the Advantage RT-PCR kit (BD Biosciences, Palo Alto, Calif.) according to manufacturer's instructions. Diluted cDNA was used in a PCR reaction with SYBR Green Master Mix (Applied Biosystems, Foster City, Calif.) and primers specifically designed for detection of the gene of interest. PCR reactions were run in duplicate for each sample and quantitated in the ABI Sequence Detection System (Applied Biosystems). Data were expressed as arbitrary units after normalization to levels of expression of internal controls for each sample. Sequences of primers for specific genes are each obtained from the published literature or designed using publically available gene sequence databases. Unless otherwise indicated, gene expression data described in the examples below was obtained using QPCR.
as §1
FGF2, FGF6 and FGF9 were used at a dosage of 50 ng/mL, 100 ng/mL, 200 ng/mL or 300 ng/mL. FGF21 was used at the dosage of 50 ng/ml and 500 ng/mL. The concentration of BMP7 was 3.3 nM. RNA was isolated and UCP1 and PPARγ expression levels were evaluated by quantitative reverse transcription polymerase chain reaction (Q-RT-PCR) analysis after 24 hours (i.e., 1 day) (FIG. 14A), 2 days (FIG. 14B), 5 days (FIG. 14C) and 7 days (FIG. 14D) of treatment. All experiments were performed triplicate and the data are presented as mean+/−SEM.
FGF2, FGF6 and FGF9 were used at a dosage of 200 ng/mL. FGF21 was used at a dosage of 500 ng/mL. The concentration of BMP7 was 3.3 nM. mRNA was isolated and UCP1 and PPARγ expression levels were evaluated by quantitative reverse transcription polymerase chain reaction (Q-RT-PCR) analysis after 24 hours (i.e., 1 day), 2 days, 5 days and 7 days of treatment (FIG. 15). All experiments were performed triplicate and the data are presented as mean+/−SEM.

Assay [2] in a line: Glucose tolerance test in Chow or high fat diet mice. The assay is classed as in vivo, C57BL6 mice. The note with it: Chow or HFD mice, i.p. glucose 2 mg/g after 16 h fast; particularly in obese HFD mice. On the procedure: C57BL6 mice were fed either the Chow diet or a high fat diet (HFD) and were fasted overnight (16 h) prior to intraperitoneal injection of 2 mg/g body weight of glucose using a 20% (w/v) solution.

“Also recorded” adds a separate entry of the source.

B1: FGF6: fibroblast growth factor 6; recombinant human FGF from R&D Systems, or mouse FGF6 cDNA overexpressed by lentiviral vector (protein)
chain: KRQRRLYCNVGIGFHLQVLPDGRISGTHEENPYSLLEISTVERGVVSLFGVRSALFVAMNSKGRLYATPSFQEECKFRETLLPNNYNAYESDLYQGTYIALSKYGRVKRGSKVSPIMTVTHFLPRI
B1: in the assay on UCP1 protein (WT-1, 200 ng/mL with insulin 20 nM and T3 1 nM), the “UCP1 protein, immunofluorescent staining” value was “significant levels of staining”. Moreover, in the assay with UCP1 protein (WT-1, seven days), the “UCP1 protein, Western blot” value is on record as “present” and the “UCP1 protein, immunofluorescent staining” value is given as “significant levels of staining”. For the same molecule, the “cellular glycolysis, glycolytic capacity and glycolytic reserve (ECAR)” value with WT-1 brown preadipocytes was “increase in cellular glycolysis, glycolytic capacity and glycolytic reserve”. The “PPARγ expression level, time course” value in assay [1] (200 ng/mL with insulin and T3, 1, 2, 5, 7 days) is “very low levels of PPARγ”. In addition, the PPARγ expression level result in assay [1] (50-300 ng/mL with insulin and T3, 1, 2, 5 and 7 days) is listed as “very low levels of PPARγ”. In addition, the “expression of transcriptional regulators of UCP1 (PGC1α, PPARγ, PRDM16)” value in assay [1] (50-300 ng/mL, three days) is “did not increase”. Besides, the “mRNA expression of other brown fat markers (PRDM16, PGC1α, CIDEA)” value in assay [1] (WT-1, seven days) is on record as “did not, in contrast, have as significant an impact”. Besides, in assay [1] (WT-1, seven days, control, induction media or FGF6), the “mRNA expression of adipogenic markers (PPARγ, aP2, FAS)” value is “only the induction media significantly increased each of the adipogenic markers”. Also, the glucose tolerance result in assay [2] was “enhanced glucose tolerance; also recorded: improved glucose tolerance”.
